T1: OsNAC2 (Oryza sativa L. (rice), UniProt Q7XUV6 1-343)
T1 sequence: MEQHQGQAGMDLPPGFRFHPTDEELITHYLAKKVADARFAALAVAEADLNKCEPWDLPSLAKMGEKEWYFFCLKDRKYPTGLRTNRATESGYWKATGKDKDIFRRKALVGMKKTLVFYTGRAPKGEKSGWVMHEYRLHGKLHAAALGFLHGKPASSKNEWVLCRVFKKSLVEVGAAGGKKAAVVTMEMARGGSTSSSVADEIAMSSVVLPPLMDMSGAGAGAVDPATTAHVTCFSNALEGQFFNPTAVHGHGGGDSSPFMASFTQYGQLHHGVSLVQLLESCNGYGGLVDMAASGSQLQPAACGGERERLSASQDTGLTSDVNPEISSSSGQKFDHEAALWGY


How the values were obtained:
OsNAC2 [1] = target: T1, OsNAC2; test: competition EMSA; unlabelled probe weakened binding of FAM probe N1; 50 mM Tris-HCl pH 8.0, 100 mM KCl, 2.5 mM MgCl2, 0.2 mM DTT, 2 ug salmon sperm DNA, 10% glycerol, 20 uL, 25 C 20 min; probe printed as 200 nmol; 10% PAGE, 0.5x; conditions: protein: recombinant; tags: pET-28a vector tag (BamHI/XhoI); chain copies: 2; blunt
OsNAC2 [2] = target: T1, OsNAC2; test: EMSA; increasing OsNAC2; 2.5 mM MgCl2; salmon sperm DNA; 50 mM Tris-HCl pH 8.0, 100 mM KCl, 2.5 mM MgCl2, 0.2 mM DTT, 2 ug salmon sperm DNA, 10% glycerol, 20 uL, 25 C 20 min; probe printed as 200 nmol; 10% PAGE, 0.5x; conditions: protein: recombinant; tags: pET-28a vector tag (BamHI/XhoI); chain copies: 2; label: FAM; blunt

Binder	binding result (OsNAC2 [1])	binding result (OsNAC2 [2])
unlabelled 3x CGGCCACGCA competitor (dsDNA) DNA 1: CGGCCACGCACGGCCACGCACGGCCACGCA DNA 2: TGCGTGGCCGTGCGTGGCCGTGCGTGGCCG	binds	
OsCKX4 promoter-derived 3x CGGCCACGCA probe (dsDNA) DNA 1: CGGCCACGCACGGCCACGCACGGCCACGCA DNA 2: TGCGTGGCCGTGCGTGGCCGTGCGTGGCCG		binds
